Source: publication PMC9254666

Molecular target: p53 (Homo sapiens), P04637
Assay: ELISA
Conditions: remark: other sources report otherwise

p53 (Homo sapiens), P04637, sequence (P04637 whole entry): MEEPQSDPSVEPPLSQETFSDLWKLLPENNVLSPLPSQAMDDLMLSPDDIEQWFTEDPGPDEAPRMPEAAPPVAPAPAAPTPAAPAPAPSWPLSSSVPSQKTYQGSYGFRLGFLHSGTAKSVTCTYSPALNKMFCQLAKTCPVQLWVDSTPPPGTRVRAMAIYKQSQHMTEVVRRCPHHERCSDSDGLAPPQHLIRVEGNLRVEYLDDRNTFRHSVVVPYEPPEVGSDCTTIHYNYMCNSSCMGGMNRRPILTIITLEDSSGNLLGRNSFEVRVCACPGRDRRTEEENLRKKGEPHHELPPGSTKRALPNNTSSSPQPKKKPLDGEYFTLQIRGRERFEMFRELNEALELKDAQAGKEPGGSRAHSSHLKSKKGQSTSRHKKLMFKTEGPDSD

B1: HDMX, O15151 (protein)
chain: MTSFSTSAQCSTSDSACRISPGQINQVRPKLPLLKILHAAGAQGEMFTVKEVMHYLGQYIMVKQLYDQQEQHMVYCGGDLLGELLGRQSFSVKDPSPLYDMLRKNLVTLATATTDAAQTLALAQDHSMDIPSQDQLKQSAEESSTSRKRTTEDDIPTLPTSEHKCIHSREDEDLIENLAQDETSRLDLGFEEWDVAGLPWWFLGNLRSNYTPRSNGSTDLQTNQDVGTAIVSDTTDDLWFLNESVSEQLGVGIKVEAADTEQTSEEVGKVSDKKVIEVGKNDDLEDSKSLSDDTDVEVTSEDEWQCTECKKFNSPSKRYCFRCWALRKDWYSDCSKLTHSLSTSDITAIPEKENEGNDVPDCRRTISAPVVRPKDAYIKKENSKLFDPCNSVEFLDLAHSSESQETISSMGEQLDNLSEQRTDTENMEDCQNLLKPCSLCEKRPRDGNIIHGRTGHLVTCFHCARRLKKAGASCPICKKEIQLVIKVFIA
How did the Kd turn out when B1 was run?
Its Kd is 4.4 nM.
